Assay results from the Human Domainome abundance scans (Beltran et al. 2025).
± gives the uncertainty stated by the source.

B1: PDZ and LIM domain protein 2, residues 284 to 339; numbered along this chain, Q96JY6 (parent)
chain: HTCEKCSTSIANQAVRIQEGRYRHPGCYTCADCGLNLKMRGHFWVGDELYCEKHAR

Variants of: B1
Test: abundance fitness (aPCA) (normalised: wild type 0, dead -1); higher = more abundant; growth selection in yeast, the domain comes from the species named
Conditions: Homo sapiens

Variant | abundance fitness
HTCEKCSTSIANQAVRIQEGRYRNPGCYTCADCGLNLKMRGHFWVGDELYCEKHAR | -0.345 ± 0.12
HTCEKCSTSIANQAVRIQEGRYRAPGCYTCADCGLNLKMRGHFWVGDELYCEKHAR | -0.307 ± 0.098
HTCEKCSTSIANQAVRIQEGRYREPGCYTCADCGLNLKMRGHFWVGDELYCEKHAR | -0.439 ± 0.14
HTCEKCSTSIANQAVRIQEGRYRRPGCYTCADCGLNLKMRGHFWVGDELYCEKHAR | -0.435 ± 0.083
HTCEKCSTSIANQAVRIQEGRYRKPGCYTCADCGLNLKMRGHFWVGDELYCEKHAR | -0.193 ± 0.11
HTCEKCSTSIANQAVRIQEGRYRPPGCYTCADCGLNLKMRGHFWVGDELYCEKHAR | -0.582 ± 0.086
HTCEKCSTSIANQAVRIQEGRYRMPGCYTCADCGLNLKMRGHFWVGDELYCEKHAR | -0.492 ± 0.09
HTCEKCSTSIANQAVRIQEGRYRGPGCYTCADCGLNLKMRGHFWVGDELYCEKHAR | -0.489 ± 0.089
HTCEKCSTSIANQAVRIQEGRYRCPGCYTCADCGLNLKMRGHFWVGDELYCEKHAR | 0.309 ± 0.063
HTCEKCSTSIANQAVRIQEGRYRFPGCYTCADCGLNLKMRGHFWVGDELYCEKHAR | -0.938 ± 0.19
HTCEKCSTSIANQAVRIQEGRYRLPGCYTCADCGLNLKMRGHFWVGDELYCEKHAR | -0.898 ± 0.077
HTCEKCSTSIANQAVRIQEGRYRSPGCYTCADCGLNLKMRGHFWVGDELYCEKHAR | -0.264 ± 0.093
HTCEKCSTSIANQAVRIQEGRYRDPGCYTCADCGLNLKMRGHFWVGDELYCEKHAR | -0.047 ± 0.08
HTCEKCSTSIANQAVRIQEGRYRQPGCYTCADCGLNLKMRGHFWVGDELYCEKHAR | -0.186 ± 0.2
HTCEKCSTSIANQAVRIQEGRYRIPGCYTCADCGLNLKMRGHFWVGDELYCEKHAR | -0.973 ± 0.36
HTCEKCSTSIANQAVRIQEGRYRWPGCYTCADCGLNLKMRGHFWVGDELYCEKHAR | -0.788 ± 0.17
HTCEKCSTSIANQAVRIQEGRYRHDGCYTCADCGLNLKMRGHFWVGDELYCEKHAR | 0.323 ± 0.075
HTCEKCSTSIANQAVRIQEGRYRHCGCYTCADCGLNLKMRGHFWVGDELYCEKHAR | -0.546 ± 0.19
HTCEKCSTSIANQAVRIQEGRYRHAGCYTCADCGLNLKMRGHFWVGDELYCEKHAR | 0.113 ± 0.093
HTCEKCSTSIANQAVRIQEGRYVHPGCYTCADCGLNLKMRGHFWVGDELYCEKHAR | -0.075 ± 0.065
HTCEKCSTSIANQAVRIQEGRYIHPGCYTCADCGLNLKMRGHFWVGDELYCEKHAR | -0.69 ± 0.21
HTCEKCSTSIANQAVRIQEGRYQHPGCYTCADCGLNLKMRGHFWVGDELYCEKHAR | -0.509 ± 0.27
HTCEKCSTSIANQAVRIQEGRYCHPGCYTCADCGLNLKMRGHFWVGDELYCEKHAR | -0.238 ± 0.11
HTCEKCSTSIANQAVRIQEGRYAHPGCYTCADCGLNLKMRGHFWVGDELYCEKHAR | -0.108 ± 0.067

Variant | abundance fitness
HTCEKCSTSIANQAVRIQEGRYLHPGCYTCADCGLNLKMRGHFWVGDELYCEKHAR | -0.212 ± 0.062
HTCEKCSTSIANQAVRIQEGRYMHPGCYTCADCGLNLKMRGHFWVGDELYCEKHAR | -0.317 ± 0.12
HTCEKCSTSIANQAVRIQEGRYTHPGCYTCADCGLNLKMRGHFWVGDELYCEKHAR | -0.125 ± 0.089
HTCEKCSTSIANQAVRIQEGRYGHPGCYTCADCGLNLKMRGHFWVGDELYCEKHAR | -0.457 ± 0.059
HTCEKCSTSIANQAVRIQEGRYHHPGCYTCADCGLNLKMRGHFWVGDELYCEKHAR | -0.302 ± 0.074
HTCEKCSTSIANQAVRIQEGRYDHPGCYTCADCGLNLKMRGHFWVGDELYCEKHAR | -0.486 ± 0.11
HTCEKCSTSIANQAVRIQEGRYEHPGCYTCADCGLNLKMRGHFWVGDELYCEKHAR | -0.318 ± 0.14
HTCEKCSTSIANQAVRIQEGRYKHPGCYTCADCGLNLKMRGHFWVGDELYCEKHAR | -0.315 ± 0.13
HTCEKCSTSIANQAVRIQEGRYSHPGCYTCADCGLNLKMRGHFWVGDELYCEKHAR | -0.278 ± 0.072
HTCEKCSTSIANQAVRIQEGRYPHPGCYTCADCGLNLKMRGHFWVGDELYCEKHAR | -0.111 ± 0.13
HTCEKCSTSIANQAVRIQEGRYFHPGCYTCADCGLNLKMRGHFWVGDELYCEKHAR | -0.391 ± 0.23
HTCEKCSTSIANQAVRIQEGRYWHPGCYTCADCGLNLKMRGHFWVGDELYCEKHAR | -0.431 ± 0.21
HTCEKCSTSIANQAVRIQEGRYNHPGCYTCADCGLNLKMRGHFWVGDELYCEKHAR | -0.173 ± 0.18
HTCEKCSTSIANQAVRIQEGRYYHPGCYTCADCGLNLKMRGHFWVGDELYCEKHAR | -0.303 ± 0.066
HTCEKCSTSIANQAVRIQEGRRRHPGCYTCADCGLNLKMRGHFWVGDELYCEKHAR | -0.333 ± 0.094
HTCEKCSTSIANQAVRIQEGRQRHPGCYTCADCGLNLKMRGHFWVGDELYCEKHAR | -0.02 ± 0.076
HTCEKCSTSIANQAVRIQEGRTRHPGCYTCADCGLNLKMRGHFWVGDELYCEKHAR | -0.477 ± 0.11
HTCEKCSTSIANQAVRIQEGRVRHPGCYTCADCGLNLKMRGHFWVGDELYCEKHAR | -0.321 ± 0.066
HTCEKCSTSIANQAVRIQEGRMRHPGCYTCADCGLNLKMRGHFWVGDELYCEKHAR | -0.532 ± 0.13
HTCEKCSTSIANQAVRIQEGRWRHPGCYTCADCGLNLKMRGHFWVGDELYCEKHAR | -0.014 ± 0.11
HTCEKCSTSIANQAVRIQEGRNRHPGCYTCADCGLNLKMRGHFWVGDELYCEKHAR | -0.32 ± 0.1
HTCEKCSTSIANQAVRIQEGRSRHPGCYTCADCGLNLKMRGHFWVGDELYCEKHAR | -0.292 ± 0.053
HTCEKCSTSIANQAVRIQEGRPRHPGCYTCADCGLNLKMRGHFWVGDELYCEKHAR | -0.496 ± 0.14
